Data set [1] concerns the molecule itself. Put plainly: cross-linking; 2 mM BMOE at the cell surface of intact Xenopus oocytes, cell-surface biotinylation, streptavidin beads, SDS-PAGE under reducing conditions, anti-His-tag western blot (ΔCCt background).
Data set [2] concerns the molecule itself. The data set is described as follows: cross-linking; intracellular BMOE (2 mM, internal perfusion or injection) in Xenopus oocytes; SDS-PAGE under reducing conditions, anti-ASIC1a western blot. A general note: A western blot detects proteins with antibodies after separation by electrophoresis.
Data set [3] deals with the molecule itself. Put plainly: cross-linking; BMOE (0.5 or 2 mM) at the cell surface of Xenopus oocytes and CHO cells before lysis, cell-surface biotinylated fractions, SDS-PAGE under reducing conditions, anti-ASIC1a western blot; band intensities pooled over oocytes and CHO cells.

The results in this text go back to paper PMC4529235, “The Human Acid-Sensing Ion Channel ASIC1a: Evidence for a Homotetrameric Assembly State at the Cell Surface” (PLoS ONE, 2015).

Usually stoichiometry N stands for a count of units in the complex or per binding partner.

B1: ASIC1a-ΔCCt (H8-hASIC1a-C466A/C471A/C497A/C528Stop) (natural protein, human, UniProt P78348-2 1-527, looked up)
chain: MELKAEEEEVGGVQPVSIQAFASSSTLHGLAHIFSYERLSLKRALWALCFLGSLAVLLCVCTERVQYYFHYHHVTKLDEVAASQLTFPAVTLCNLNEFRFSQVSKNDLYHAGELLALLNNRYEIPDTQMADEKQLEILQDKANFRSFKPKPFNMREFYDRAGHDIRDMLLSCHFRGEVCSAEDFKVVFTRYGKCYTFNSGRDGRPRLKTMKGGTGNGLEIMLDIQQDEYLPVWGETDETSFEAGIKVQIHSQDEPPFIDQLGFGVAPGFQTFVACQEQRLIYLPPPWGTCKAVTMDSDLDFFDSYSITACRIDCETRYLVENCNCRMVHMPGDAPYCTPEQYKECADPALDFLVEKDQEYCVCEMPCNLTRYGKELSMVKIPSKASAKYLAKKFNKSEQYIGENILVLDIFFEVLNYETIEQKKAYEIAGLLGDIGGQMGLFIGASILTVLELFDYAYEVIKHKLARRGKAQKEAKRSSADKGVALSLDDVKRHNPAESLRGHPAGMTYAANILPHHPARGTFEDFT
notes: human ASIC1a lacking the cysteines of the C-terminus; C528Stop removes the last residue; also called Ctrl; source: Xenopus laevis oocytes, cRNA injected; not shown: His8, N-terminal, kept
For B1, the “stoichiometry N” value in data set [1] was determined as 2.

B2: Y426C-ΔCCt (natural protein, human, UniProt P78348 1-527, looked up)
chain: MELKAEEEEVGGVQPVSIQAFASSSTLHGLAHIFSYERLSLKRALWALCFLGSLAVLLCVCTERVQYYFHYHHVTKLDEVAASQLTFPAVTLCNLNEFRFSQVSKNDLYHAGELLALLNNRYEIPDTQMADEKQLEILQDKANFRSFKPKPFNMREFYDRAGHDIRDMLLSCHFRGEVCSAEDFKVVFTRYGKCYTFNSGRDGRPRLKTMKGGTGNGLEIMLDIQQDEYLPVWGETDETSFEAGIKVQIHSQDEPPFIDQLGFGVAPGFQTFVACQEQRLIYLPPPWGTCKAVTMDSDLDFFDSYSITACRIDCETRYLVENCNCRMVHMPGDAPYCTPEQYKECADPALDFLVEKDQEYCVCEMPCNLTRYGKELSMVKIPSKASAKYLAKKFNKSEQYIGENILVLDIFFEVLNYETIEQKKACEIAGLLGDIGGQMGLFIGASILTVLELFDYAYEVIKHKLARRGKAQKEAKRSSADKGVALSLDDVKRHNPAESLRGHPAGMTYAANILPHHPARGTFEDFT
notes: human ASIC1a, ΔCCt background (C528Stop removes the last residue) with Y426C; also called Y426C-CCt; source: Xenopus laevis oocytes, cRNA injected; not shown: His8, N-terminal, kept
In the case of B2, the “stoichiometry N” value in data set [1] is 4.

B3: G433C-ΔCCt (natural protein, human, UniProt P78348 1-527, looked up)
chain: MELKAEEEEVGGVQPVSIQAFASSSTLHGLAHIFSYERLSLKRALWALCFLGSLAVLLCVCTERVQYYFHYHHVTKLDEVAASQLTFPAVTLCNLNEFRFSQVSKNDLYHAGELLALLNNRYEIPDTQMADEKQLEILQDKANFRSFKPKPFNMREFYDRAGHDIRDMLLSCHFRGEVCSAEDFKVVFTRYGKCYTFNSGRDGRPRLKTMKGGTGNGLEIMLDIQQDEYLPVWGETDETSFEAGIKVQIHSQDEPPFIDQLGFGVAPGFQTFVACQEQRLIYLPPPWGTCKAVTMDSDLDFFDSYSITACRIDCETRYLVENCNCRMVHMPGDAPYCTPEQYKECADPALDFLVEKDQEYCVCEMPCNLTRYGKELSMVKIPSKASAKYLAKKFNKSEQYIGENILVLDIFFEVLNYETIEQKKAYEIAGLLCDIGGQMGLFIGASILTVLELFDYAYEVIKHKLARRGKAQKEAKRSSADKGVALSLDDVKRHNPAESLRGHPAGMTYAANILPHHPARGTFEDFT
notes: human ASIC1a, ΔCCt background (C528Stop removes the last residue) with G433C; source: Xenopus laevis oocytes, cRNA injected; not shown: His8, N-terminal, kept
B3: the “stoichiometry N” value in data set [1] stood at 4.

B4: V74C-ΔCCt (natural protein, human, UniProt P78348 1-527, looked up)
chain: MELKAEEEEVGGVQPVSIQAFASSSTLHGLAHIFSYERLSLKRALWALCFLGSLAVLLCVCTERVQYYFHYHHCTKLDEVAASQLTFPAVTLCNLNEFRFSQVSKNDLYHAGELLALLNNRYEIPDTQMADEKQLEILQDKANFRSFKPKPFNMREFYDRAGHDIRDMLLSCHFRGEVCSAEDFKVVFTRYGKCYTFNSGRDGRPRLKTMKGGTGNGLEIMLDIQQDEYLPVWGETDETSFEAGIKVQIHSQDEPPFIDQLGFGVAPGFQTFVACQEQRLIYLPPPWGTCKAVTMDSDLDFFDSYSITACRIDCETRYLVENCNCRMVHMPGDAPYCTPEQYKECADPALDFLVEKDQEYCVCEMPCNLTRYGKELSMVKIPSKASAKYLAKKFNKSEQYIGENILVLDIFFEVLNYETIEQKKAYEIAGLLGDIGGQMGLFIGASILTVLELFDYAYEVIKHKLARRGKAQKEAKRSSADKGVALSLDDVKRHNPAESLRGHPAGMTYAANILPHHPARGTFEDFT
notes: human ASIC1a, ΔCCt background (C528Stop removes the last residue) with V74C; source: Xenopus laevis oocytes, cRNA injected; not shown: His8, N-terminal, kept
Turning to B4, the “stoichiometry N” value in data set [1] was 4.

B5: G430C-ΔCCt (natural protein, human, UniProt P78348 1-527, looked up)
chain: MELKAEEEEVGGVQPVSIQAFASSSTLHGLAHIFSYERLSLKRALWALCFLGSLAVLLCVCTERVQYYFHYHHVTKLDEVAASQLTFPAVTLCNLNEFRFSQVSKNDLYHAGELLALLNNRYEIPDTQMADEKQLEILQDKANFRSFKPKPFNMREFYDRAGHDIRDMLLSCHFRGEVCSAEDFKVVFTRYGKCYTFNSGRDGRPRLKTMKGGTGNGLEIMLDIQQDEYLPVWGETDETSFEAGIKVQIHSQDEPPFIDQLGFGVAPGFQTFVACQEQRLIYLPPPWGTCKAVTMDSDLDFFDSYSITACRIDCETRYLVENCNCRMVHMPGDAPYCTPEQYKECADPALDFLVEKDQEYCVCEMPCNLTRYGKELSMVKIPSKASAKYLAKKFNKSEQYIGENILVLDIFFEVLNYETIEQKKAYEIACLLGDIGGQMGLFIGASILTVLELFDYAYEVIKHKLARRGKAQKEAKRSSADKGVALSLDDVKRHNPAESLRGHPAGMTYAANILPHHPARGTFEDFT
notes: human ASIC1a, ΔCCt background (C528Stop removes the last residue) with G430C; source: Xenopus laevis oocytes, cRNA injected; not shown: His8, N-terminal, kept
With B5, the “stoichiometry N” value in data set [1] is 4.

B6: wild type human ASIC1a (H8-ASIC1a) (natural protein, UniProt P78348-2 1-528, looked up)
chain: MELKAEEEEVGGVQPVSIQAFASSSTLHGLAHIFSYERLSLKRALWALCFLGSLAVLLCVCTERVQYYFHYHHVTKLDEVAASQLTFPAVTLCNLNEFRFSQVSKNDLYHAGELLALLNNRYEIPDTQMADEKQLEILQDKANFRSFKPKPFNMREFYDRAGHDIRDMLLSCHFRGEVCSAEDFKVVFTRYGKCYTFNSGRDGRPRLKTMKGGTGNGLEIMLDIQQDEYLPVWGETDETSFEAGIKVQIHSQDEPPFIDQLGFGVAPGFQTFVACQEQRLIYLPPPWGTCKAVTMDSDLDFFDSYSITACRIDCETRYLVENCNCRMVHMPGDAPYCTPEQYKECADPALDFLVEKDQEYCVCEMPCNLTRYGKELSMVKIPSKASAKYLAKKFNKSEQYIGENILVLDIFFEVLNYETIEQKKAYEIAGLLGDIGGQMGLFIGASILTVLELFDYAYEVIKHKLCRRGKCQKEAKRSSADKGVALSLDDVKRHNPCESLRGHPAGMTYAANILPHHPARGTFEDFTC
notes: ends with the terminal Cys (C528); Same construct expressed in two hosts; the printed band intensities pool oocytes and CHO cells; also called ASIC1a wt; hASIC1a; source: Xenopus laevis oocytes, cRNA injected; CHO-K1 cells, transfected; not shown: His8, N-terminal, kept
For the protein B6, the “stoichiometry N” value in data set [2] worked out at 4.

B7: ASIC1a G433C (with intact C-terminal cysteines) (natural protein, human, UniProt P78348-2 1-528, looked up)
chain: MELKAEEEEVGGVQPVSIQAFASSSTLHGLAHIFSYERLSLKRALWALCFLGSLAVLLCVCTERVQYYFHYHHVTKLDEVAASQLTFPAVTLCNLNEFRFSQVSKNDLYHAGELLALLNNRYEIPDTQMADEKQLEILQDKANFRSFKPKPFNMREFYDRAGHDIRDMLLSCHFRGEVCSAEDFKVVFTRYGKCYTFNSGRDGRPRLKTMKGGTGNGLEIMLDIQQDEYLPVWGETDETSFEAGIKVQIHSQDEPPFIDQLGFGVAPGFQTFVACQEQRLIYLPPPWGTCKAVTMDSDLDFFDSYSITACRIDCETRYLVENCNCRMVHMPGDAPYCTPEQYKECADPALDFLVEKDQEYCVCEMPCNLTRYGKELSMVKIPSKASAKYLAKKFNKSEQYIGENILVLDIFFEVLNYETIEQKKAYEIAGLLCDIGGQMGLFIGASILTVLELFDYAYEVIKHKLCRRGKCQKEAKRSSADKGVALSLDDVKRHNPCESLRGHPAGMTYAANILPHHPARGTFEDFTC
notes: human ASIC1a with G433C, C-terminal cysteines intact; The methods describe G433C only on the ΔCCt template; the results say that this G433C has intact C-terminal cysteines; source: Xenopus laevis oocytes, cRNA injected; CHO-K1 cells, transfected; not shown: His8, N-terminal, kept
In the case of B7, the “stoichiometry N” value in data set [3] turned out to be 4.
